Results taken from doi:10.1101/2025.09.11.675682 (2025).

B2: PLC-γ1 (Phospholipase C-γ1), 1–1219 (enzyme)
chain: MAGAASPCANGCGPGAPSDAEVLHLCRSLEVGTVMTLFYSKKSQRPERKTFQVKLETRQITWSRGADKIEGAIDIREIKEIRPGKTSRDFDRYQEDPAFRPDQSHCFVILYGMEFRLKTLSLQATSEDEVNMWIKGLTWLMEDTLQAPTPLQIERWLRKQFYSVDRNREDRISAKDLKNMLSQVNYRVPNMRFLRERLTDLEQRSGDITYGQFAQLYRSLMYSAQKTMDLPFLEASTLRAGERPELCRVSLPEFQQFLLDYQGELWAVDRLQVQEFMLSFLRDPLREIEEPYFFLDEFVTFLFSKENSVWNSQLDAVCPDTMNNPLSHYWISSSHNTYLTGDQFSSESSLEAYARCLRMGCRCIELDCWDGPDGMPVIYHGHTLTTKIKFSDVLHTIKEHAFVASEYPVILSIEDHCSIAQQRNMAQYFKKVLGDTLLTKPVEISADGLPSPNQLKRKILIKHKKLAEGSAYEEVPTSMMYSENDISNSIKNGILYLEDPVNHEWYPHYFVLTSSKIYYSEETSSDQGNEDEEEPKEVSSSTELHSNEKWFHGKLGAGRDGRHIAERLLTEYCIETGAPDGSFLVRESETFVGDYTLSFWRNGKVQHCRIHSRQDAGTPKFFLTDNLVFDSLYDLITHYQQVPLRCNEFEMRLSEPVPQTNAHESKEWYHASLTRAQAEHMLMRVPRDGAFLVRKRNEPNSYAISFRAEGKIKHCRVQQEGQTVMLGNSEFDSLVDLISYYEKHPLYRKMKLRYPINEEALEKIGTAEPDYGALYEGRNPGFYVEANPMPTFKCAVKALFDYKAQREDELTFIKSAIIQNVEKQEGGWWRGDYGGKKQLWFPSNYVEEMVNPVALEPEREHLDENSPLGDLLRGVLDVPACQIAIRPEGKNNRLFVFSISMASVAHWSLDVAADSQEELQDWVKKIREVAQTADARLTEGKIMERRKKIALELSELVVYCRPVPFDEEKIGTERACYRDMSSFPETKAEKYVNKAKGKKFLQYNRLQLSRIYPKGQRLDSSNYDPLPMWICGSQLVALNFQTPDKPMQMNQALFMTGRHCGYVLQPSTMRDEAFDPFDKSSLRGLEPCAISIEVLGARHLPKNGRGIVCPFVEIEVAGAEYDSTKQKTEFVVDNGLNPVWPAKPFHFQISNPEFAFLRFVVYEEDMFSDQNFLAQATFPVKGLKTGYRAVPLKNNYSEDLELASLLIKIDIFPAKENGD

Legend:
Test in all cases: ITC
[1] = biological target: B2
[2] = biological target: SLP-76 PRR peptide (aa 185–200), high affinity mutant (UniProt Q13094 185-200)
LAT 125-178 = biological target: T1, LAT 125-178 (Homo sapiens, UniProt O43561)
T1 chain: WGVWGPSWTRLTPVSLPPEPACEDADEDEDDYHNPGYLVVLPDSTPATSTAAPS

SLP-76 159-533 = biological target: T2, SLP-76 159-533 (Homo sapiens, UniProt Q13094)
T2 chain: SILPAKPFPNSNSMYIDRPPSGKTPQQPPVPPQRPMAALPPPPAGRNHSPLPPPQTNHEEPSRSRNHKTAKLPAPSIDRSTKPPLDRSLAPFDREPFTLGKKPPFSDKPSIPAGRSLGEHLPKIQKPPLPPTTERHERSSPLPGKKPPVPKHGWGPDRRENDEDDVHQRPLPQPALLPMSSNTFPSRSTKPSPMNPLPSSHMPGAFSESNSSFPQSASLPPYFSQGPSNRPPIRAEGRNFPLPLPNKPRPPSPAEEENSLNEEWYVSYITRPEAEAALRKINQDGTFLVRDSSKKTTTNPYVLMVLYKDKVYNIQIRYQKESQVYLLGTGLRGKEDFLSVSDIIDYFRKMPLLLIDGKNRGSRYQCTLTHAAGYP

B1: SLP-76 PRR peptide (aa 185–200), wild type (peptide)
peptide: QPPVPPQRPMAALPPP
B1 was tested, and the Kd [1] was 2360 nM.

Work on B2 yielded a Kd [2] of 1000 nM.

B3: PLC-γ1 1-1219 (protein)
chain: MAGAASPCANGCGPGAPSDAEVLHLCRSLEVGTVMTLFYSKKSQRPERKTFQVKLETRQITWSRGADKIEGAIDIREIKEIRPGKTSRDFDRYQEDPAFRPDQSHCFVILYGMEFRLKTLSLQATSEDEVNMWIKGLTWLMEDTLQAPTPLQIERWLRKQFYSVDRNREDRISAKDLKNMLSQVNYRVPNMRFLRERLTDLEQRSGDITYGQFAQLYRSLMYSAQKTMDLPFLEASTLRAGERPELCRVSLPEFQQFLLDYQGELWAVDRLQVQEFMLSFLRDPLREIEEPYFFLDEFVTFLFSKENSVWNSQLDAVCPDTMNNPLSHYWISSSHNTYLTGDQFSSESSLEAYARCLRMGCRCIELDCWDGPDGMPVIYHGHTLTTKIKFSDVLHTIKEHAFVASEYPVILSIEDHCSIAQQRNMAQYFKKVLGDTLLTKPVEISADGLPSPNQLKRKILIKHKKLAEGSAYEEVPTSMMYSENDISNSIKNGILYLEDPVNHEWYPHYFVLTSSKIYYSEETSSDQGNEDEEEPKEVSSSTELHSNEKWFHGKLGAGRDGRHIAERLLTEYCIETGAPDGSFLVRESETFVGDYTLSFWRNGKVQHCRIHSRQDAGTPKFFLTDNLVFDSLYDLITHYQQVPLRCNEFEMRLSEPVPQTNAHESKEWYHASLTRAQAEHMLMRVPRDGAFLVRKRNEPNSYAISFRAEGKIKHCRVQQEGQTVMLGNSEFDSLVDLISYYEKHPLYRKMKLRYPINEEALEKIGTAEPDYGALYEGRNPGFYVEANPMPTFKCAVKALFDYKAQREDELTFIKSAIIQNVEKQEGGWWRGDYGGKKQLWFPSNYVEEMVNPVALEPEREHLDENSPLGDLLRGVLDVPACQIAIRPEGKNNRLFVFSISMASVAHWSLDVAADSQEELQDWVKKIREVAQTADARLTEGKIMERRKKIALELSELVVYCRPVPFDEEKIGTERACYRDMSSFPETKAEKYVNKAKGKKFLQYNRLQLSRIYPKGQRLDSSNYDPLPMWICGSQLVALNFQTPDKPMQMNQALFMTGRHCGYVLQPSTMRDEAFDPFDKSSLRGLEPCAISIEVLGARHLPKNGRGIVCPFVEIEVAGAEYDSTKQKTEFVVDNGLNPVWPAKPFHFQISNPEFAFLRFVVYEEDMFSDQNFLAQATFPVKGLKTGYRAVPLKNNYSEDLELASLLIKIDIFPAKENGD
modifications: pY132, pY171
For B3, the Kd (LAT 125-178) was 84 nM.

B4: Gads 1-322 (protein)
chain: MEAVAKFDFTASGEDELSFHTGDVLKILSNQEEWFKAELGSQEGYVPKNFIDIQFPKWFHEGLSRHQAENLLMGKEVGFFIIRASQSSPGDFSISVRHEDDVQHFKVMRDNKGNYFLWTEKFPSLNKLVDYYRTNSISRQKQIFLRDRTREDQGHRGNSLDRRSQGGPHLSGAVGEEIRPSMNRKLSDHPPTLPLQQHQHQPQPPQYAPAPQQLQQPPQQRYLQHHHFHQERRGGSLDINDGHCGTGLGSEMNAALMHRRHTDPVQLQAAGRVRWARALYDFEALEDDELGFHSGEVVEVLDSSNPSWWTGRLHNKLGLFPA
B4 was tested, and the Kd (SLP-76 159-533) was 3.6 nM.

B5: Gads 1-322 (protein)
chain: MEAVAKFDFTASGEDELSFHTGDVLKILSNQEEWFKAELGSQEGYVPKNFIDIQFPKWFHEGLSRHQAENLLMGKEVGFFIIRASQSSPGDFSISVRHEDDVQHFKVMRDNKGNYFLWTEKFPSLNKLVDYYRTNSISRQKQIFLRDRTREDQGHRGNSLDRRSQGGPHLSGAVGEEIRPSMNRKLSDHPPTLPLQQHQHQPQPPQYAPAPQQLQQPPQQRYLQHHHFHQERRGGSLDINDGHCGTGLGSEMNAALMHRRHTDPVQLQAAGRVRWARALYDFEALEDDELGFHSGEVVEVLDSSNPSWWTGRLHNKLGLFPA
modifications: pY132, pY171
B5 showed a Kd (LAT 125-178) of 213 nM.
